Assay results: patent US20210047427A1 (Takeda / Millennium, published 2021)

Target: T1, cynomolgus CD38 (cynomolgus monkey, UniProt Q5VAN0 1-301)
T1 construct: In the assays it is native CD38 on cynomolgus monkey blood lymphocytes; also called cyno CD38; monkey CD38
Experiment: Flow cytometry of cynomolgus monkey whole blood stained with labelled AB79. MFI converted to MOEF with Rainbow Beads. NK (CD3-, CD159a+), B (CD3-, CD20+) and T (CD3+) cells; 3 individuals, mean with SD.
Method: The flow cytometric measurements were standardized and the signals are reported in molecules of equivalent soluble fluorescence (MOEF). […] Direct comparison of CD38 expression levels on monkey NK cells (CD3−, CD159a+), B cells (CD3−, CD20+) and T cells (CD3+) and human NK cells (CD3−, CD16/CD56+), B cells (CD3−, CD19+) and T cells (CD3+) were evaluated by flow cytometry.
An aliquot of blood (100 μL) was mixed with appropriate volume of antibody (FIG. 1) and incubated for 15-20 minutes at RT in the dark. After incubation, 1 mL of BD FACS lyse (1×; BD Biosciences; San Jose, Calif.) was added to lyse red blood cells and the cells incubated for 10 minutes at RT in the dark, then centrifuged, decanted and resuspended in 1 mL of staining buffer with bovine serum albumin (BD Biosciences).

T1 sequence (Q5VAN0 whole entry): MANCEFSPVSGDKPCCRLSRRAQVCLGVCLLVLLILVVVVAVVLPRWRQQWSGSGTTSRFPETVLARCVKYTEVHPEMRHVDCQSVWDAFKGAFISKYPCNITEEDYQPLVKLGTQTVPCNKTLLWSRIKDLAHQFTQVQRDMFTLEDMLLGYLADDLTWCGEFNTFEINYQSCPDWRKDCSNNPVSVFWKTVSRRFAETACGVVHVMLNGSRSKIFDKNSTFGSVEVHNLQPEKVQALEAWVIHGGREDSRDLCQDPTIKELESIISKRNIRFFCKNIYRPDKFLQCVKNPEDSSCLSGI

binding result: binds
B1: AB79 (antibody, human IgG1, lambda, V domains shown)
VH: EVQLLESGGGLVQPGGSLRLSCAASGFTFDDYGMSWVRQAPGKGLEWVSDISWNGGKTHYVDSVKGQFTISRDNSKNTLYLQMNSLRAEDTAVYYCARGSLFHDSSGFYFGHWGQGTLVTVSS
VL: QSVLTQPPSASGTPGQRVTISCSGSSSNIGDNYVSWYQQLPGTAPKLLIYRDSQRPSGVPDRFSGSKSGTSASLAISGLRSEDEADYYCQSYDSSLSGSVFGGGTKLTVLG
